Where a chain is given by its changes, count along the chain named. Like-named read-outs stand apart in the source and are kept apart here.
B1: ERR2-308 (mAb037) (antibody, human IgG1, V domains shown)
VH: QEQLEESGGRLVTPGTPLTLTCAVSGFSLSNYAMGWVRQAPGEGLEYIGWISAGGGAYYASWVNGRFTISKTSSTVDLKMTSLTAADTATYFCARGASNGCDLWGPGTLVTVSS
VL: DPMLTQTPSSVSAVVGGTVTIKCQASQSITSWLSWYQQKPGQPPKLLIYGASHLASGVPSRFKGSGYGTEFTLTISGIQREDAATYYCLGGYSNSDIVFGGGTELEIL
notes: Full-length chimeric rabbit/human IgG1, human IgH-gamma1 and IgL-kappa constant regions; C-terminal tags HC: LPETG-Strep, LC: G5SLPETG-Strep
B2: chimeric rabbit/human Fab XBR2-TOP9 (Fab, V domains shown)
VH: QSVEESRGRLVTPGTPLTLICTVSGIDLSSYNIQWVRQAPGKGLEYIGYINTDGSAYYASWAKGRFTISKTSTTVDLKITSPTTEDTATYFCARGGYASGFNLWGPGTLVTISS
VL: DVVMTQTPSSTSAAVGGTVTIKCQASQNIGPWLSWYQQKPGQPPKQLIYAASTLASGVPSRFKGSGSGTDYTLTISGVQREDAATYYCLGWHSWSDDGWAFGAGTNVEIK
B3: ERR2-302 (mAb004) (antibody, human IgG1, V domains shown)
VH: QKQLVESGGGLVKPGGSLTLTCTVSGFSLSSYAIGWVRQAPGNGLEWIGIINSYGSTYYASWAKSRSTITRNTNLNTVTLKMTSLTAADTATYFCARSPYGYVSAWGYHRLDLWGQGTLVTISS
VL: SYELTQLPSVSVSLGQTARITCGGASIGSKVVHWYQQKPGLAPGLLIYDDDERPSGVPDRFSGSNSGDTATLTISGAQAGDEAEYYCQLWDGSDVVFGGGTQLTVTG
notes: Full-length chimeric rabbit/human IgG1, human IgH-gamma1 and IgL-lambda constant regions; C-terminal tags HC: LPETG-Strep, LC: G5SLPETG-Strep
B4: IgG1 XBR2-416 (antibody, V domains shown)
VH: QEQLEESGGRLVTPGTPLTLTCTVSGFSLSSYWMSWVRQAPGKGLEWIGTITPGGNTDYATWAKARFTVSKTSTTVDLKITSPTTEDTATYFCARGIGGAADLWGPGTLVTISS
VL: AQVLTQTPSSTSAAVGGTVTIKCQASQSISSSDLSWYQQKPGQPPKLLIYATSYLASGVPSRFKGSGSGTEYTLTISGVQREDAATYYCLGGYPNTSYRSAFGGGTKVEIK
notes: also called chimeric rabbit/human IgG1 XBR2-416
B5: XBR2-TOP72 (IgG) (antibody, V domains shown)
VH: QEQLEESGGRLVTPGTPLTLTCTVSGIDLSSNAMSWVRQAPGKGLEYVGFINGGGGVHYASWARGRFTISKTSTTVDLKITSPTTEDTATYFCARAGTTYYTSFNLWGPGTLVTISS
VL: QFVLTQSPSASAALGSSAKLTCTLSSAHKTYTIAWYQQQQGEAPRLLMMLRTDGSYTKGTGVPDRFSGSSSGADRYLIISSVQADDAAGYYCGADYSGGYVFGGGTQLTVTG
notes: also called chimeric rabbit/human IgG1 XBR2-TOP72
B6: IgG1 XBR2-433 (antibody, V domains shown)
VH: QSVKESEGGLFKPTDTLTLTCTVSGFSLSTYGVSWVRQAPGNGLEWIGAIGSSGSANYASWAKDRSTITRNTNLNTVTLKMTSLTAADTATYFCARDGYYSSGWGPYFNIWGPGTLVTISS
VL: SFVLTQPASVQVNLGQTVSLTCTADTLSRSYASWYQQKPGQAPVLLIYRDTSRPSGVPDRFSGSSSGNTATLTISGAQAGDEADYYCATSGGSGSNPQYVFGGGTQLTVTG
B7: ERR2-Top35 (mAb130) (antibody, V domains shown)
VH: B6 VH with T14M, S29N, I50V, S55A, A56T, D64S, L74E, N109S, I119V
VL: SFVLTQPASVQVNLGQTVSLTCTAETLRSSYASWYQQKPGQAPVLLIYRDTSRPSGVPDRFSGSSSGNTATLTISGAQAGDEADYYCATSDGSGSRYYVFGGGTQLTVTG
B8: ERR2-316 (mAb005) (antibody, human IgG1, V domains shown)
VH: QKQLVESGGRLVTPGGSLTLTCTVSGFSLSKYGVSWVRQAPGSGLEYIGTIGGSGTSYYASWAKSRSTITRNTNLNTVTLKMTSLTAADTATYFCARYFGWNTGFDIWGPGTLVTISS
VL: DPVMTQTPSSVSEPVGGTVTIKCQASQSISNALAWYQQKPGQPPKRLIYKASTPASGVPSRFKGSRSGTEYTLTISGVQREDAATYYCLGFSVVSNDGWAFGAGTNVEIK
notes: Full-length chimeric rabbit/human IgG1, human IgH-gamma1 and IgL-kappa constant regions; C-terminal tags HC: LPETG-Strep, LC: G5SLPETG-Strep; also called mAb0005
B9: ERR2-317 (mAb006) (antibody, human IgG1, V domains shown)
VH: QSLEESGGRLVTPGTPLTLTCTASGFSLSSYDMIWVRQAPGKGLEYIGIINAGGNTYYASWAKGRFTISRTSTTVDLKMTSPTTEDTATYFCARGSSWTGDIWGPGTLVTVSS
VL: DPVLTQTPSSTSAAVGGTVTIKCQASQSISSYLSWYQQKPGQPPKQLIYAASTLASGVPSRFKGSGSGTEYTLTISGVQREDAATYYCLGGYASASYQTAFGGGTKVEIK
notes: as for B1

What was measured:
[1] = molecular target: T1, anti-human Fc (Jackson ImmunoResearch, 109-006-008); experiment: ELISA, IgG titrated on coated anti-human Fc; fit printed as IC50
T1 construct: Coated on a control plate to capture the chimeric IgG1 antibodies through their human Fc; also called IgG

[2] = molecular target: T1, anti-human Fc (Jackson ImmunoResearch, …); experiment: as above; remark: listed apart in the source
[3] = molecular target: T2, recombinant human twin strep-tagged ROR2 extracellular domain (human, UniProt Q01974 34-403); experiment: ELISA, IgG titrated on coated twin-strep human ROR2 ECD; fit printed as IC50
T2 construct: extracellular domain; Made in HEK293T, Streptactin purified; also called Human ROR2-TwinStrep; human ROR2

[4] = molecular target: T2, recombinant human twin strep-tagged …; experiment: as above; remark: listed apart in the source
[5] = molecular target: T3, recombinant cynomolgus twin strep-tagged ROR2 extracellular domain (cynomolgus monkey, UniProt A0A7N9D5U8 34-403); experiment: ELISA, IgG titrated on coated twin-strep cynomolgus ROR2 ECD; fit printed as IC50
T3 construct: extracellular domain; Made in HEK293T, Streptactin purified; also called cynomolgus ROR2; cynomolgus ROR2-TwinStrep

[6] = molecular target: T2, recombinant human twin strep-tagged …; experiment: SPR, Biacore T200, IgG captured by anti-human Fcγ, ROR2-TwinStrep as analyte, 1:1 Langmuir
[7] = molecular target: T3, recombinant cynomolgus twin …; experiment: as above
[8] = molecular target: T4, recombinant murine twin strep-tagged ROR2 extracellular domain (mouse, UniProt Q9Z138 34-403); experiment: ELISA on coated twin-strep mouse ROR2 ECD (FIG. 14B); patent's own reading of the ELISA curves on coated mouse ROR2 (FIG. 14, panel B)
T4 construct: extracellular domain; Made in HEK293T, Streptactin purified; also called mouse ROR2; murine ROR2
T4 sequence (Q9Z138 other isoform, or with tags, fused parts or gaps): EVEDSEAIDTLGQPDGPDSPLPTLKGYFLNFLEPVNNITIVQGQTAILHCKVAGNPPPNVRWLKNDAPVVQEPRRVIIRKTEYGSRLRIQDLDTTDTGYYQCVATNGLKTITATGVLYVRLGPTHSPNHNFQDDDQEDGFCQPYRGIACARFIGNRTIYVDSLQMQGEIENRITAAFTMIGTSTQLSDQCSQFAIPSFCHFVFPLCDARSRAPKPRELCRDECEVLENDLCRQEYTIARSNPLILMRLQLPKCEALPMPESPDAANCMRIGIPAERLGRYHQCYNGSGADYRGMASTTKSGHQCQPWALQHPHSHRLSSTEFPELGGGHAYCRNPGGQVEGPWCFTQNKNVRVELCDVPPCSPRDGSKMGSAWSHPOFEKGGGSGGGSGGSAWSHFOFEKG

BSA = molecular target: T5, BSA (bovine, UniProt P02769); experiment: ELISA, coated antigen 100 ng/well, anti-His HRP, absorbance 405 nm
T5 construct: also called bovine serum albumin
T5 sequence (P02769 25-607 limits assumed): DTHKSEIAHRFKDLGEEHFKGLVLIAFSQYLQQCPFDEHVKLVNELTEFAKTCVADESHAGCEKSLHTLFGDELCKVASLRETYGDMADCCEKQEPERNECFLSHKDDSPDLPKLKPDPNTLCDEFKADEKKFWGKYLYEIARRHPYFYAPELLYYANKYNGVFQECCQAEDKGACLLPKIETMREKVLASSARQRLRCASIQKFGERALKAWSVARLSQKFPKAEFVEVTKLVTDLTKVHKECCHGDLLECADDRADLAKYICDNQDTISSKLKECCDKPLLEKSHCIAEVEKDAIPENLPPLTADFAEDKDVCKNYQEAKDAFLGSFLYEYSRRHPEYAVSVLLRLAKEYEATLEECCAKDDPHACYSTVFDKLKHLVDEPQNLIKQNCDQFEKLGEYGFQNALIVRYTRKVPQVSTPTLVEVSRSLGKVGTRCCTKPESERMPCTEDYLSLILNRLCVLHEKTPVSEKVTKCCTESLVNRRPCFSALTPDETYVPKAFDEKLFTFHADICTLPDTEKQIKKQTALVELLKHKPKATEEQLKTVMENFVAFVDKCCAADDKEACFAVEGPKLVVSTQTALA

hFc-hROR1 = molecular target: T6, hFc-hROR1 (human, UniProt Q01973 30-403, limits assumed); experiment: as above
T6 construct: also called ROR1 (ELISA control); not shown: human Fc (hFc) of pCEP4-hFc-hROR1 (Yang et al., 2011)
T6 sequence (Q01973 30-403 limits assumed): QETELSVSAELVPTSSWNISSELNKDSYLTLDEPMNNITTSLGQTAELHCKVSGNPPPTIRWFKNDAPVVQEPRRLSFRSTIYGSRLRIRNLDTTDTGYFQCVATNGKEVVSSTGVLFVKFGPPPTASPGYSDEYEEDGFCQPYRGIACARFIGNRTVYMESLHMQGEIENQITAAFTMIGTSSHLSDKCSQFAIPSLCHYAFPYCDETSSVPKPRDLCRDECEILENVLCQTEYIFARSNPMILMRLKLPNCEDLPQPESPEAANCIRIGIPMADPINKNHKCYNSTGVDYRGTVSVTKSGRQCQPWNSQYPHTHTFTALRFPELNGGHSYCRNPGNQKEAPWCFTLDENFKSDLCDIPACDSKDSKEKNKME

[9] = molecular target: T7, full-length human ROR2 on cells (human, UniProt Q01974 34-943); experiment: flow cytometry, 63-12 cells expressing hROR2, Fab 1 µg/100 µL, anti-His Alexa Fluor 488
T7 construct: whole, on cells; the cells are named under assay; In the Western blot it is denatured; also called hROR2; cell surface human ROR2

[10] = molecular target: T4, recombinant murine twin strep-tagged …; experiment: ELISA, IgG titrated on coated twin-strep mouse ROR2 ECD; fit printed as IC50
Ig [11] = molecular target: T8, Ig; experiment: flow cytometry, HEK 293F cells displaying the construct, IgG1 1 µg/mL, APC (binding) against PE (expression); on Vec cells Q2 1.86
T8 construct: transmembrane segment; also called HA-Ig

Fr = molecular target: T9, Fr (human); experiment: as above
T9 construct: isolated domain;transmembrane segment; also called HA-Fr

Ki = molecular target: T10, Ki (human); experiment: as above
T10 construct: isolated domain;transmembrane segment; also called HA-Ki

Ig+Fr [12] = molecular target: T11, Ig+Fr (human); experiment: as above
T11 construct: two-domain fragment;transmembrane segment; also called HA-Ig+Fr

Fr+Ki = Fr+Ki (human); experiment: as above
Chain of Fr+Ki (human) (chain, as listed by the source): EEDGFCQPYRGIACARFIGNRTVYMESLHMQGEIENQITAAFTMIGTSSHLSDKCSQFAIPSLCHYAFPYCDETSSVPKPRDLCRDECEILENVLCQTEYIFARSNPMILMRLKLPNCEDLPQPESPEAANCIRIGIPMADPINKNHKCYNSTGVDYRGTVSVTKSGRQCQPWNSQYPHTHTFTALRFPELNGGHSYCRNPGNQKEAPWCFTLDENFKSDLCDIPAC

[13] = molecular target: T12, hROR2-T245 extracellular domain displayed on HEK 293F cells (human, UniProt Q01974 55-394; P09619 513-561); experiment: as above
T12 construct: range 55-394;range 513-561; also called complete ECD

[14] = molecular target: T7, full-length human ROR2 on cells; experiment: flow cytometry, T47D cells (endogenous hROR2), IgG 100 ng/100 µL, anti-human Fc APC
Ig [15] = molecular target: T8, Ig; experiment: flow cytometry, HEK 293F cells displaying the construct, IgG1 1 µg/mL, APC (binding) against PE (expression); on Vec cells Q2 6.53 and 73.5 in the PE- APC+ quadrant
Ig+Fr [16] = molecular target: T11, Ig+Fr; experiment: as above
[17] = molecular target: T12, hROR2-T245 extracellular domain …; experiment: as above

| Binder | IC50 [1] [µg/mL] | IC50 [2] [µg/mL] | IC50 [3] [µg/mL] | IC50 [4] [µg/mL] | IC50 [5] [µg/mL] | binding result [8] | also measured |
| --- | --- | --- | --- | --- | --- | --- | --- |
| B1 | 0.0336 | 0.0167 | 0.467 | 0.0186 | 0.0046 | no binding (tested: 0.5 µg/mL highest concentration) | Kd [6]: 11.2 nM; koff [6]: 0.000153 s⁻¹; kon [6]: 13700 M⁻¹ s⁻¹; Kd [7]: 5.4 nM; koff [7]: 0.000127 s⁻¹; kon [7]: 23800 M⁻¹ s⁻¹ |
| B2 | – | – | – | – | – | – | binding result (BSA): no binding (tested: 100 ng/50 µL); binding result (hFc-hROR1): no binding (tested: 100 ng/50 µL); binding result [9]: binds |
| B3 | 0.0322 | 0.0134 | 0.102 | 0.0055 | 0.0071 | – | IC50 [10]: 0.0606 µg/mL; Kd [6]: 52.4 nM; koff [6]: 0.0056 s⁻¹; kon [6]: 107000 M⁻¹ s⁻¹; Kd [7]: 48.6 nM; koff [7]: 0.00527 s⁻¹; kon [7]: 108000 M⁻¹ s⁻¹ |
| B4 | – | – | – | – | – | – | cells in quadrant Q2 (PE+ APC+) (Ig [11]): 3.22%; cells in quadrant Q2 (PE+ APC+) (Fr): 4.05%; cells in quadrant Q2 (PE+ APC+) (Ki): 90.2%; cells in quadrant Q2 (PE+ APC+) (Ig+Fr [12]): 3.9%; cells in quadrant Q2 (PE+ APC+) (Fr+Ki): 69.7%; cells in quadrant Q2 (PE+ APC+) [13]: 55.9% |
| B5 | – | – | – | – | – | – | binding result [14]: binds |
| B6 | – | – | – | – | – | – | cells in quadrant Q2 (PE+ APC+) (Ig [15]): 67%; cells in quadrant Q2 (PE+ APC+) (Ig+Fr [16]): 50.7%; cells in quadrant Q2 (PE+ APC+) [17]: 90.6% |
| B7 | 0.0419 | 0.0143 | 0.0244 | 0.0462 | 0.0531 | – | IC50 [10]: 0.0173 µg/mL |
| B8 | 0.04 | 0.0112 | 0.0299 | 0.0407 | 0.044 | no binding (tested: 0.5 µg/mL highest concentration) | – |
| B9 | 0.0391 | 0.0084 | 1.35 | 0.0168 | 0.019 | no binding (tested: 0.5 µg/mL highest concentration) | – |

From patent US20190031754A1 (Scripps Research, published 2019)
